Source: patent US20080292619A1, “Pharmaceutical Composition Containing Meltrin Antagonist” (MOCHIDA PHARMACEUTICAL CO., LTD., priority 2004, published 2008)

Target: T1, meltrin α (Homo sapiens, UniProt O43184, E208G/T209S)
T1 construct: had been converted to mature meltrin α having the prodomain deleted (molecular weight 68 kDa); made in house; host or cells: COS-1
T1 sequence (O43184 208-738 isoform O43184-2 E208G/T209S): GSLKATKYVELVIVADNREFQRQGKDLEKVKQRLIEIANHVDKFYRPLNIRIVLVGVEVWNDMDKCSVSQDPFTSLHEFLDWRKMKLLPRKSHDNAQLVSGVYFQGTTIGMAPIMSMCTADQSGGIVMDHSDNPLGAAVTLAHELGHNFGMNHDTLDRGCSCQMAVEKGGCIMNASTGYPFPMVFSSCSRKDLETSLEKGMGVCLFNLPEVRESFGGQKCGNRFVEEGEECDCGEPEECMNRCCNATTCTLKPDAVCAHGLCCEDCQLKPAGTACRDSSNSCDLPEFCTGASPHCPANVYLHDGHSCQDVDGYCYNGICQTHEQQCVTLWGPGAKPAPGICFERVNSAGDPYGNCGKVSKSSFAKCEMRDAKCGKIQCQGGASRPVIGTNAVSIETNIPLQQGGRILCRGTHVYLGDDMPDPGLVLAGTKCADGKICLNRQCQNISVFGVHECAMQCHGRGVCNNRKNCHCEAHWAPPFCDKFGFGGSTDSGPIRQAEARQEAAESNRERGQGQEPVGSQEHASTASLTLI
Assay: Inhibition of protease activity of meltrin α (rhIGF-BP3 cleavage, western blotting)
Assay type: biochemical
Details: antibody 300 μg/mL; rhIGF-BP3 band
Experimental: Thrombin (Amersham Biosciences) was added to the purified meltrin α-STFLAG prepared in Example 5, and mixture was kept at 25° C. for 15 hours. When the solution after the reaction was examined by repeating the procedure of Example 5, the human meltrin α containing the prodomain (molecular weight 92 kDa) had been converted to mature meltrin α having the prodomain deleted (molecular weight 68 kDa). For measuring the enzymatic activity of the meltrin α, the solution after the prodomain cleavage with thrombin followed by inactivation of the thrombin by 10 mM APMSF (Wako Pure Chemical Industries, Ltd.) was used. The disappearance of the thrombin activity was confirmed by using the synthetic substrate for the thrombin on the reaction solution. […]
The anti-human meltrin α antibodies produced in Examples 6 and 7 were evaluated on their activity for inhibiting protease activity of meltrin α by using the protease activity assay system of Example 9. […] After the reaction, the reaction solution was electrophoresed by SDS-PAGE, and the rhIGF-BP3 was detected by western blotting.
According to the method of Example 9, activity of the low molecular weight compound for inhibiting protease activity of the meltrin α was assayed as described below. […] After the reaction, the reaction solution was electrophoresed by SDS-PAGE, and the rhIGF-BP3 was detected by western blotting.

B1: F1196-113-1: anti-meltrin α monoclonal antibody clone (antibody, V domains shown)
VH: EVKLLESGGGLVQPGGSLKLSCAASGFDFSRYWMSWVRQAPGKGLEWIGEINPDSSTINYTPSLKDKFIISRDNAKNTLYLHMSKVRSEDTALYYCARPDSYYRYYAMDYWGQGTSVTVSSAKTTA
VL: DIQMTQTTSSLSASLGDRVTISCRASQDISNYLNWYQQKPDGTVKLLIYYTSRLHSGVPSRFSGSGSGTDYSLTISNQEQEDIATYFCQQGNTLPYTFGGGTKLEIKR
- activity for inhibiting protease activity of meltrin α: inhibitory activity for the meltrin α protease activity has been confirmed
